This assay deals with biotinylated Calmodulin-binding peptide, biotin-…. The assay can be described thus: model selection from a 4200:1 mixture (ED-B:Calmodulin templates) on peptide-coated magnetic beads; 35-cycle PCR, 1:10^5 dilution, real-time PCR on 1 µl; background carry-over of the excess non-binder. (Quantitative PCR measures a nucleic acid by following its amplification.)
biotinylated Calmodulin-binding peptide, biotin-…, sequence (peptide, as listed by the source): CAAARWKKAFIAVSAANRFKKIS

On to “M.Hae III-ED-B fusion protein (covalently bonded to the linear DNA coding for it) (from UniProt P20589 1-330; P02751 1266-1356)”, for which the DNA molecules detected after selection (DNA molecules) stood at 1.4e+06.

Source of the values: patent publication US7527954.
